Results published in publication PMC12578645 (2025).

B1: PILRα_G78 ectodomain (paired immunoglobulin-like type 2 receptor alpha, HSV-1 gB co-receptor, with R78G) (receptor)
chain: QPSGSTGSGPSYLYGVTQPKHLSASMGGSVEIPFSFYYPWELATAPDVRISWRRGHFHGQSFYSTRPPSIHKDYVNRLFLNWTEGQKSGFLRISNLQKQDQSVYFCRVELDTRSSGRQQWQSIEGTKLSITQAVTTTTQRPSSMTTTWRLSSTTTTTGLRVTQGKRRSDSWHISLETA
B2: PILRα_G78 ectodomain (paired immunoglobulin-like type 2 receptor alpha, HSV-1 gB co-receptor, with R78G) (receptor)
chain: B1 chain
modifications: engineered disulfide A240C-E607C; N-linked glycans (densities seen at 141, 398, 430 and 674)
B3: gB-Ecto.H516P.L531E (HSV-1 glycoprotein B ectodomain stabilized in the prefusion conformation) (domain or fragment)
chain: not shown
modifications: N-linked glycans (densities seen at 141, 398, 430 and 674)
B4: D48 Fab (Fab, V domains shown)
VH: EVQLVETGGGVVRPGRSLRLSCTTSGFSFSGSAMHWVRQAPGKGLEWVAVISHDGNIIQYHDSVKGRFTISRDNSKNVLLLQMNSLRVDDTAMYYCARDVWLLPATISYAFDFWGQGTMVTVSS
VL: VIWMTQSPPSLSASIGDTVTITCRASQGISNSIAWYQRRPGKAPELLVYAAYRLQSGVPSRLSGSGSGAEYTLTIKNMQPEDFATYYCQQYYDNPLTFGGGTKVEIK
B5: D48 Fab (Fab, V domains shown)
VH: B4 VH
VL: B4 VL
modifications: engineered disulfide A240C-E607C; N-linked glycans (densities seen at 141, 398, 430 and 674)

Experiments:
Test in all cases: SPR
[1] = biological target: B3
[2] = biological target: T1, gB-Ecto.H516P (HSV-1 glycoprotein B ectodomain with H516P and an appended foldon; postfusion) (HSV-1 KOS strain, UniProt P06437 31-728, H516P, N-linked glycans (densities seen at 141, 398, 430 and 674))
[3] = biological target: B3; remark: listed apart in the source
[4] = biological target: T1, gB-Ecto.H516P (HSV-1 glycoprotein B …); remark: listed apart in the source
[5] = biological target: T2, gB-Ecto.H516P.L531E.DS (HSV-1 glycoprotein B ectodomain stabilized in the prefusion conformation with the … (HSV-1 KOS strain, UniProt P06437 31-728, H516P | L531E | A240C | E607C))
[6] = biological target: T2, gB-Ecto.H516P.L531E.DS (HSV-1 …); remark: listed apart in the source
DL16 = biological target: DL16
SS55 = biological target: SS55
SS10 = biological target: SS10

With B1 the koff [1] was 0.34 s⁻¹, the koff [2] was 0.66 s⁻¹ and the Kd [3] was 1600 nM. It also gave a Kd [4] of 2000 nM.

B2 was tested, and the koff [5] was 0.33 s⁻¹ and the Kd [6] was 1800 nM.

For B3, the Kd (DL16) was 28.2 nM, the koff (DL16) was 0.0013 s⁻¹ and the Kd (SS55) was 7.47 nM. It also gave a koff (SS55) of 0.000208 s⁻¹, a Kd (SS10) of 1.03 nM and a koff (SS10) of 5.6e-05 s⁻¹.

For B4, the koff [1] was 1.08e-05 s⁻¹, the koff [2] was 4.06e-05 s⁻¹ and the Kd [3] was 0.0272 nM. It also gave a Kd [4] of 0.252 nM.

B5 was tested, and the koff [5] was 2.18e-05 s⁻¹ and the Kd [6] was 0.0827 nM.
